Laboratory results as given in US20190322748A1.
pKd: −log10 of the molar value.

Experiments:
[1] = biological target: full-length human Tim3 on cells (CHO-K1 stably transfected with plasmid 15312_hTIM3-fl_pUC_Neo) (human) (UniProt Q8TDQ0); experiment: cell-based or functional assay
[2] = biological target: monomeric human Tim3-ECD (human) (UniProt Q8TDQ0); experiment: SPR BIAcore B4000, Ab captured on anti-mouse IgG, 25 C
[3] = biological target: monomeric cyno Tim3-ECD (cynomolgus); experiment: as above
[4] = biological target: monomeric cyno Tim3-ECD (cynomolgus); experiment: ELISA on cynomolgus Tim3
[5] = biological target: monomeric cyno Tim3-ECD (cynomolgus); experiment: ELISA on cynomolgus Tim3 (values in relation to the samples max value)
[6] = biological target: Tim3-ECD-His-Biotin (human) (UniProt Q8TDQ0); experiment: ELISA on human Tim3
[7] = biological target: full-length human Tim3 on cells (CHO-K1 stably transfected with plasmid 15312_hTIM3-fl_pUC_Neo) (human) (UniProt Q8TDQ0); experiment: cellular ELISA on CHO-TIM3 (values in relation to the samples max value)
[8] = biological target: Tim3-ECD-His-Biotin (human) (UniProt Q8TDQ0); experiment: ELISA on human Tim3 (values in relation to the samples max value)
[9] = biological target: huFc fused dimeric human Tim3-ECD (human) (UniProt Q8TDQ0); experiment: SPR BIAcore B4000, Ab captured on anti-mouse IgG, 25 C, dimeric antigen (avidity)
[10] = biological target: full-length human Tim3 on cells (CHO-K1 stably transfected with plasmid 15312_hTIM3-fl_pUC_Neo) (human) (UniProt Q8TDQ0); experiment: cellular ELISA on CHO-TIM3

## Reference antibody Biolegend F38-2E2
[1]
  IFN-gamma release in MLR at 1 µg/ml antibody, % of rec hu IL-2 (20 EU/ml) = 100%: 7%
  IFN-gamma release in MLR at 10 µg/ml antibody, % of rec hu IL-2 (20 EU/ml) = 100%: 26%
  IFN-gamma release in MLR at 40 µg/ml antibody, % of rec hu IL-2 (20 EU/ml) = 100%: 36%
[2]
  pKd: 7.87
[3]
  pKd: 6.77
[4]
  Inflexion point: 210000 ng/mL
[5]
  EC50: 0.423 µg/mL
[6]
  Inflexion point: 88.3 ng/mL
[7]
  EC50: 0.15 µg/mL
[8]
  EC50: 0.0732 µg/mL
[9]
  pKd: 8.12
[10]
  Inflexion point: 224 ng/mL
